The values below come from publication PMC2139940 (The Journal of Cell Biology, 1997).

The target of assay [1] is actin filaments (actin purified from rabbit skeletal muscle, polymerized) (rabbit, UniProt P68135 1-377). Description: co-sedimentation.
In assay [2] the target is T1, GST fusion protein with α catenin (mouse, UniProt P26231 1-906).
T1 sequence (looked up): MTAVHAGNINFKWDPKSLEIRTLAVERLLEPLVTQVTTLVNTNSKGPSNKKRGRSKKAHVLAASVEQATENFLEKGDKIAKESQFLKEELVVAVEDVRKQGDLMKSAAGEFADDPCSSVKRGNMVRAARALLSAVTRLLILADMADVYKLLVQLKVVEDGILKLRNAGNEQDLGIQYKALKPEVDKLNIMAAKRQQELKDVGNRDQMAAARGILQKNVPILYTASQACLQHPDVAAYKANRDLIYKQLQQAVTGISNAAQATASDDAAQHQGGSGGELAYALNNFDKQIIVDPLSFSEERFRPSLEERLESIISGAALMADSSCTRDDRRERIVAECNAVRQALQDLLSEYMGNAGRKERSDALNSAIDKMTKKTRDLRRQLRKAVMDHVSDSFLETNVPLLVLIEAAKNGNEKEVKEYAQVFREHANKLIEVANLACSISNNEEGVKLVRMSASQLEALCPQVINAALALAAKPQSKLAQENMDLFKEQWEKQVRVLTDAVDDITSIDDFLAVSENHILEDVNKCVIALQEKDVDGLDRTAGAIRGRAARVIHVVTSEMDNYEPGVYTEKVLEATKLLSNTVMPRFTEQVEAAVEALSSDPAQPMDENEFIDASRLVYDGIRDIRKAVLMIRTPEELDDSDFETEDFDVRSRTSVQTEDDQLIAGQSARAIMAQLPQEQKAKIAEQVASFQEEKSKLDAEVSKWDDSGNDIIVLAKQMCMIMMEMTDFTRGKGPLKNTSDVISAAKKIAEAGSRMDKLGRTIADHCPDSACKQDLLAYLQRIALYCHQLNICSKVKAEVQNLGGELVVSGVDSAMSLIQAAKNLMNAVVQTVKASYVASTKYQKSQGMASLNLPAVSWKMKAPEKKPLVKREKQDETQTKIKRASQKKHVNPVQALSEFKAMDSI
Kind of assay: pull-down.

B1: recombinant carboxyl-terminal half of ZO-1 (C-ZO-1; 863–1745 aa) produced in Sf9 cells (domain or fragment)
chain: NDEVGTPPESAITRSSEPVREDSSGMHHENQTYPPYSPQAQPQAIHRIDSPGLKPASQQKAEASSPVPYLSPETTPASSASAVNHNVSVTNVSLEEPAPAPPTSHASQPGCLGAPSAEAAHVVLRGEGPPLPPHADPAKVYRKEPYSEEMMRQNHILKQPALGHPGQRPDKEPNLAYEPQLPYIEKQASRDLEQPSYRYEVSSYTDQFSRNYDHRLRFEDRIPTYEDQWSYYDDKQPYQPRPFENQHPRDLDSRQHPEEASERGYFQRFEEPAPLSYDSRTRYEQLPRTSTLRHEEQPAPAYEVHNRYRPEAQPYSSTGPKSSEPKQYFDQYPRSYEQVPPPGFTSKTGHYEPLHGAAVVPPLIPSSQQKPEVLPSATKPQPPPPTLTEEEEDPAMKPQSVLTRVKMFENKRSASLENKKDVNDTASFKPPEVASKPPGASLAGPKPVPQSQFSEHDKTLYRLPEPQKPQVKPPEDIVRSNHYDPEEDEEYYRKQLSYFDRRSFESKPSAHLPAGHHSEPAKPVHSQSQPNFSSYSSKGKPETDAVDRSFSEKRYDPAQATPPPPPLPSQYSQPAPPLSSSSLHIHSKGAQGEGNSVSLDFQNSYMSKPDPPPSQSKPATFRPPTREDPPQTFYPQKSFPDKAPVNGAEQTQKTITPVYNRFTPKPYTSSARPFERKFESPKFNHNLLPSETVHKPELSSKTPTSPKTLMKAHSSTQPPEFDSGVETFSVHTDKPKYQMNNISTMPKAVPVSPSAVEEDEDEDGHTVVATARGIFNSNGGVLSSIETGVSIIIPQGAIPEGIEQEIYFKVCRDNSILPPLDKEKGETLLSPLVMCGPHGLKFLKPVELRLPHCDPKTWQNKCLPGDPNYLVGANCVSVLIDHF
Consider B1, for which, in assay [1], the Kd (in general, the concentration at which binding is half-saturated) is around 10 nM.

B2: recombinant amino-terminal half dlg-like domain of ZO-1 (N-ZO-1; 1–862 aa) produced in Sf9 cells (domain or fragment, mouse, UniProt P39447 1-862, looked up)
chain: MSARAAAAKSTAMEETAIWEQHTVTLHRAPGFGFGIAISGGRDNPHFQSGETSIVISDVLKGGPAEGQLQENDRVAMVNGVSMDNVEHAFAVQQLRKSGKNAKITIRRKKKVQIPVSHPDPEPVSDNEDDSYDEEVHDPRAGRGALANRRSEKSWARDRSASRERSLSPRSDRRSVASSQPAKPTKVTLVKSRKNEEYGLRLASHIFVKEISQDSLAARDGNIQEGDVVLKINGTVTENMSLTDAKTLIERSKGKLKMVVQRDERATLLNVPDLSDSIHSANASERDDISEIQSLASDHSGRSHDRPPRRSQSRSPDQRSEPSDHSTQSPQQPSNGSLRSREEERMSKPGAISTPVKHVDDHPPKAVEEVTVEKNEKQTPTLPEPKPVYAQVGQPDVDLPVSPSDGALPNSAHEDGILRPSMKLVKFRKGDSVGLRLAGGNDVGIFVAGVLEDSPAAKEGLEEGDQILRVNNVDFTNIIREEAVLFLLDLPKGEEVTILAQKKKDVYRRIVESDVGDSFYIRTHFEYEKESPYGLSFNKGEVFRVVDTLYNGKLGSWLAIRIGKNHKEVERGIIPNKNRAEQLASVQYTLPKTAGGDRADFWRFRGLRSSKRNLRKSREDLSAQPVQTKFPAYERVVLREAGFLRPVTIFGPIADVAREKLAREEPDIYQIAKSEPRDAGTDHRSSGIIRLHTIKQIIDQDKHALLDVTPNAVDRLNYAQWYPIVVFLNPDSKQGVKTMRMRLCPESRKSARKLYERSHKLRKNNHHLFTTTINLNSMNDGWYGALKEAIQQQQNQLVWVSEGKADGATSDDLDLHDDRLSYLSAPGSEYSMYSTDSRHTSDYEDTDTEGGAYTDQELDETL
As to B2, in assay [2], the Kd was around 0.5 nM.
